Data published in US20240336672A1 (INSTITUT PASTEUR, published 2024).

Tests used:
[1] = target: T1, SARS-CoV-2 Spike ectodomain (tri-S), Wuhan (SARS-CoV-2, UniProt P0DTC2 14-1208); assay: ELISA
[2] = target: SARS-CoV-2 spike, Gamma variant (P.1), on virus or pseudotyped particles (SARS-CoV-2); assay: cell-based or functional assay
[3] = target: T2, SARS-CoV-2 spike, Delta variant (B.1.617.2), on virus or pseudotyped particles (SARS-CoV-2); assay: cell-based or functional assay
[4] = target: SARS-CoV-2 spike, Beta variant (B.1.351), on virus or pseudotyped particles (SARS-CoV-2); assay: cell-based or functional assay
[5] = target: T1, SARS-CoV-2 Spike ectodomain (tri-S), …; assay: infrared immunoblot on heat-denatured tri-S
[6] = target: SARS-CoV-2 omicron variant B.1.1.529 Spike ectodomain (tri-S, HexaPro) (SARS-CoV-2, UniProt P0DTC2 14-1208); assay: ELISA; set-up: unit not given beside the values
[7] = target: SARS-CoV-2 RBD (B.1.351) domain (SARS-CoV-2); assay: ELISA; set-up: unit not given beside the values
[8] = target: SARS-CoV-2 omicron variant B.1.1.529 RBD domain (SARS-CoV-2); assay: ELISA; set-up: unit not given beside the values
[9] = target: T3, SARS-CoV-2 delta variant B.1.617.2/3 RBD domain (SARS-CoV-2); assay: ELISA; set-up: unit not given beside the values
[10] = target: SARS-CoV-2 RBD (P.1) domain (SARS-CoV-2); assay: ELISA; set-up: unit not given beside the values
[11] = target: T4, SARS-CoV-2 kappa variant B.1.617.1/3 RBD domain (SARS-CoV-2); assay: ELISA; set-up: unit not given beside the values
[12] = target: T1, SARS-CoV-2 Spike ectodomain (tri-S), …; assay: ELISA; set-up: unit not given beside the values
[13] = target: SARS-CoV-2 delta plus variant RBD (SARS-CoV-2); assay: ELISA; set-up: unit not given beside the values
[14] = target: SARS-CoV-2 RBD (B.1.351) domain (SARS-CoV-2); assay: ELISA; set-up: unit not given beside the values; remark: listed apart in the source
[15] = target: SARS-CoV-2 RBD (B.1.1.7) domain (SARS-CoV-2); assay: ELISA; set-up: unit not given beside the values
[16] = target: T3, SARS-CoV-2 delta variant B.1.617.2/3 …; assay: RBD-ACE2 competition ELISA; set-up: unit not given beside the values
[17] = target: SARS-CoV-2 RBD (P.1) domain (SARS-CoV-2); assay: RBD-ACE2 competition ELISA; set-up: unit not given beside the values
[18] = target: T4, SARS-CoV-2 kappa variant B.1.617.1/3 …; assay: RBD-ACE2 competition ELISA; set-up: unit not given beside the values
[19] = target: SARS-CoV-2 delta plus variant RBD (SARS-CoV-2); assay: RBD-ACE2 competition ELISA; set-up: unit not given beside the values
[20] = target: SARS-CoV-2 RBD (B.1.351) domain (SARS-CoV-2); assay: RBD-ACE2 competition ELISA; set-up: unit not given beside the values
[21] = target: SARS-CoV-2 RBD (B.1.1.7) domain (SARS-CoV-2); assay: RBD-ACE2 competition ELISA; set-up: unit not given beside the values
[22] = target: T2, SARS-CoV-2 spike, Delta variant …; assay: cell-based or functional assay; remark: listed apart in the source
[23] = target: T3, SARS-CoV-2 delta variant B.1.617.2/3 …; assay: RBD-ACE2 competition ELISA

B1: CV2.1388 (antibody)
heavy chain: QVQLVQSGPEVKKPGTSVKVSCKASGFTFTSSAVQWVRQARGQRLEWIGWIVVGSGDTNYAQKFQERVTITRDMSTSTAYMELSSLRSEDTAVYYCATDRQAGSRTYYFPGEGWFDPWGQGTLVTVSS
light chain: QSVLTQPPSVSAAPGQKVTISCSGSTTNIGNNYVSWYQRLPGTAPKLLIYDNNKRPSGIPDRFSGSKSGTSATLGITGLQTGDEADYYCGTWDSSLSGVVFRRRDQADRPR
binding result [1]: no binding (tested: 10 µg/ml)

B2: LY-CoV555 (parental IgG1 version) (antibody, V domains shown)
VH: QVQLVQSGAEVKKPGSSVKVSCKASGGTFSNYAISWVRQAPGQGLEWMGRIIPILGIANYAQKFQGRVTITADKSTSTAYMELSSLRSEDTAVYYCARGYYEARHYYYYYAMDVWGQGTAVTVSS
VL: not shown
IC50, in vitro neutralisation [2]: > 25 nM
IC50, in vitro neutralisation [3]: > 25 nM
IC50, in vitro neutralisation [4]: > 25 nM

B3: Cv2.3132 (IgG) (antibody, V domains shown)
VH: EVQLVESGGGLVKPGGSLRLSCAASGFTFSDYYMSWIRQAPGKGLEWVSYISSSGSVQYYADSVKGRFTISRDNAENSLYLQMNSLRAEDTAVYYCARYYYDSSGYWKRLDYWGQGTLVTVSS
VL: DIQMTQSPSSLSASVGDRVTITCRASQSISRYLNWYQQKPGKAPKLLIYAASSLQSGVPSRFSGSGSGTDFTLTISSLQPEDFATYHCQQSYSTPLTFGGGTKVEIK
binding result [5]: binds

B4: Cv2.5179 (recombinant human IgG1) (antibody, V domains shown)
VH: QVQLVQSGPEVKKPGTSVKVSCKASGFTFTSSAVQWVRQARGQRLEWIGWIVVGSGNTNYAQKFQERVTITRDMSTSTAYMELSSLRSEDTAVYYCAAPHCSSTSCYDAFDIWGQGTMVTVSS
VL: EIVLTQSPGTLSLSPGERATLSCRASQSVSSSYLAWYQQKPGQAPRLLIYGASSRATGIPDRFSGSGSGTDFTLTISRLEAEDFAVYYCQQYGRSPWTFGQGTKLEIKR
notes: also called Cv2.5179 IgG
AUC [6]: 3
AUC [7]: 12
AUC [8]: 2
AUC (Binding) [9]: 12
AUC (Binding) [10]: 11
AUC (Binding) [11]: 12
AUC (Binding) [12]: 12
AUC (Binding) [13]: 12
AUC (Binding) [14]: 11
AUC (Binding) [15]: 11
AUC (Blocking) [16]: 115
AUC (Blocking) [17]: 50
AUC (Blocking) [18]: 114
AUC (Blocking) [19]: 144
AUC (Blocking) [20]: 49
AUC (Blocking) [21]: 64
IC50, S-Fuse neutralisation [22]: 0.0052 µg/mL
IC50 (read off the curve) [23]: ~0.4 µg/mL

B5: CB6 (parental IgG1 version) (antibody, V domains shown)
VH: EVQLVESGGGLVQPGGSLRLSCAASGFTVSSNYMSWVRQAPGKGLEWVSVIYSGGSTFYADSVKGRFTISRDNSMNTLFLQMNSLRAEDTAVYYCARVLPMYGDYLDYWGQGTLVTVSS
VL: not shown
IC50, in vitro neutralisation [2]: > 25 nM
IC50, in vitro neutralisation [4]: > 25 nM

B6: CV2.1174 (antibody, V domains shown)
VH: EVQLVESGPEVKKPGTSVKVSCKASGFTFTRSAMQWVRQARGQRLEWIGWIVVGSGNTNYAQKFQERVTITRDMSTSTAYMELSSLRSEDTAVYYCAARQDYYYYGMDVWGQGTTVTVSS
VL: DIQMTQSPSSLSASVGDRVTITCRASQGMSNSLDWDQQKPGKAPKLLLYAASRLKSGVPSRFSGSGSGTDYTLTISSLQPEDFATYYCQQYYSDPPKTFGQGTKVEIK
binding result [1]: no binding (tested: 10 µg/ml)
